Tests used:
[1] = molecular target: monomeric SARS-CoV-2 RBD with Flag peptide and 8xHis-tag (RBD-FH) (SARS-CoV-2, WA1 (Wuhan-like), UniProt P0DTC2); experiment: SPR; settings: both partners purified
[2] = molecular target: monomeric SARS-CoV-2 RBD (S residues 332-534) with Flag peptide and 8xHis-tag (SARS-CoV-2, WA1 (Wuhan-like), UniProt P0DTC2, biotin (only in the flow cytometry on bacteria)); experiment: SPR; settings: both partners purified
[3] = molecular target: T1, human fibrinogen (control antigen) (Homo sapiens, UniProt P02671;P02675;P02679-2, biotin | biotin | biotin); experiment: flow cytometry on cells; settings: one partner purified
T1 construct: also called human fribrinogen
T1 sequence (P02671 36-866, chain 1 of 3): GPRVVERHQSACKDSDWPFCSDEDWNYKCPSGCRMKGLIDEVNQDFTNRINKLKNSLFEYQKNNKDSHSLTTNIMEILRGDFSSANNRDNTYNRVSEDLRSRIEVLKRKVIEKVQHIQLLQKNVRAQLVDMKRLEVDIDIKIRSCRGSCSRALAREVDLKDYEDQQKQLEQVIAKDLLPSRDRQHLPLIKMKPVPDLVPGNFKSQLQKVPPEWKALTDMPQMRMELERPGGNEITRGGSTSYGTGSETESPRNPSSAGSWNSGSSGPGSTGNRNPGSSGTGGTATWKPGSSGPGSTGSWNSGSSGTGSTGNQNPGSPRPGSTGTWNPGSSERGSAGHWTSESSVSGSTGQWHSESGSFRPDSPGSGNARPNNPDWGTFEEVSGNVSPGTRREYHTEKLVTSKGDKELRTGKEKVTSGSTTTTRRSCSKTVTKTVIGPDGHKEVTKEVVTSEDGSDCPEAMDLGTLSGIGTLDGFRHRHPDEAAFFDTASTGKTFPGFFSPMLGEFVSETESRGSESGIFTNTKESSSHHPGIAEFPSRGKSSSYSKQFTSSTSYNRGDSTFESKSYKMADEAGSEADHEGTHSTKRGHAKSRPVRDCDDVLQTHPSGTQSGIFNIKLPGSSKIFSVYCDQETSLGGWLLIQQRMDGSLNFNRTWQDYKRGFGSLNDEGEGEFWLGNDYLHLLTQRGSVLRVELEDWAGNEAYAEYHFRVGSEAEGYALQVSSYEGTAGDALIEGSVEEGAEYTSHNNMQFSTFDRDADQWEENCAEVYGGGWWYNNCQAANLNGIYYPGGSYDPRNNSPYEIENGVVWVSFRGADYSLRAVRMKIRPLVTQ
T1 sequence (P02675 45-491, chain 2 of 3): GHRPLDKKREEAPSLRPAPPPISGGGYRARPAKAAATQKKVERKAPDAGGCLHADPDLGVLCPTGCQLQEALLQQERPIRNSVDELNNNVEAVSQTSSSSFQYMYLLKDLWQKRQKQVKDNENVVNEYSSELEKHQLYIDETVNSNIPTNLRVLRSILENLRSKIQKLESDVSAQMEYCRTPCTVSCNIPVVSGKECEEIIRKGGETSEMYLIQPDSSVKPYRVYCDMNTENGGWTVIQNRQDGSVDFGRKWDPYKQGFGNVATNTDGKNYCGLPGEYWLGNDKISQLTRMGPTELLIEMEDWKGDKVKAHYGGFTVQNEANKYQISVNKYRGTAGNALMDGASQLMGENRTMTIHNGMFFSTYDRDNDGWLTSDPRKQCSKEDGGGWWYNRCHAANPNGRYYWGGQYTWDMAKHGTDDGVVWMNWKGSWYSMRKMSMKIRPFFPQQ
T1 sequence (P02679 27-453, chain 3 of 3): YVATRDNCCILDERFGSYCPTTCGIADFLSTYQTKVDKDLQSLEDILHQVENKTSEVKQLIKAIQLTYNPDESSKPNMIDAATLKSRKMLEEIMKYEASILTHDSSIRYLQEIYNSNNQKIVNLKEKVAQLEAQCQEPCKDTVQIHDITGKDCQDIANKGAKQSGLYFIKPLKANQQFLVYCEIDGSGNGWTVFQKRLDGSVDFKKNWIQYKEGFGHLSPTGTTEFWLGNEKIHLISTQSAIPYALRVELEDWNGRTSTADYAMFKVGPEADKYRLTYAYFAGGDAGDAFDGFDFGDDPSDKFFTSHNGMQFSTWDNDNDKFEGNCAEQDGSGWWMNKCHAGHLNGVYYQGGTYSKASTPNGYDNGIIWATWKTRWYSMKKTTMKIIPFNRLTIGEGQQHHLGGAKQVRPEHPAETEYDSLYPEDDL

B1: 1.10 Nb (VHH)
VHH: QVQLVESGGGSVQAGGSLRLSCAASGYTYSTCRKGWYRQAPGKERELVASITADGATYYLDSVKGRLTISQDNAKNTVYLQMNSLKPEDTAVYYCAASVKDFTCTFNSWGQGTQVTVSS
- Kd [1]: 3.96 nM
- koff [1]: 0.00137 s⁻¹
- kon [1]: 345000 M⁻¹ s⁻¹

B2: 1.26 Nb (VHH)
VHH: QVQLVESGGGLVQAGGSLRLSCAATGYTWSSVCMGWFRQAPGKEREGVAGIPSGRNRPYYADSVKGRFTISQDNAKNAVFLLMNSLKPEDTAIYYCAPCSAPHDPEYNYWGQGTQVTVSS
- Kd [1]: 0.26 nM
- koff [1]: 0.000624 s⁻¹
- kon [1]: 2.44e+06 M⁻¹ s⁻¹

B3: 1.29 Nb (VHH)
VHH: QVQLVESGGGSVQAGGSLRLSCAASGYTINTDAVAWFRQAPGKGDERVAVIYTGSGNTNYADSVKGRFTISQDNAKNTVYLQMNSLKPEDTALYYCASGYYGASGYDFNNWGQGTQVTVSS
- Kd [1]: 12.9 nM
- koff [1]: 0.00614 s⁻¹
- kon [1]: 476000 M⁻¹ s⁻¹

B4: 2.20 Nb (VHH)
VHH: QVQLVESGGGSVQAGGSLRLSCAASGYTYNNYYMGWFRQAPGKEREGVAAINSDGLDTYVADSVKGRFTISRDNAKDTVHLQMNSLKPEDTAIYSCATGRTVYYSGYDFRLSVDDYWGQGTQVTVSS
- Kd [1]: 0.77 nM
- koff [1]: 0.00101 s⁻¹
- kon [1]: 1.3e+06 M⁻¹ s⁻¹

B5: Nb 1.29, monomeric nanobody (VHH)
VHH: QVQLVESGGGSVQAGGSLRLSCAASGYTINTDAVAWFRQAPGKGDERVAVIYTGSGNTNYADSVKGRFTISQDNAKNTVYLQMNSLKPEDTALYYCASGYYGASGYDFNNWGQGTQVTVSS
- Kd [2]: 13 nM

B6: Nb 1.26, monomeric nanobody (VHH)
VHH: QVQLVESGGGLVQAGGSLRLSCAATGYTWSSVCMGWFRQAPGKEREGVAGIPSGRNRPYYADSVKGRFTISQDNAKNAVFLLMNSLKPEDTAIYYCAPCSAPHDPEYNYWGQGTQVTVSS
- Kd [2]: ~0.3 nM

B7: Nb 1.10 displayed on E. coli as intimin-Nb-myc tag fusion (VHH)
VHH: QVQLVESGGGSVQAGGSLRLSCAASGYTYSTCRKGWYRQAPGKERELVASITADGATYYLDSVKGRLTISQDNAKNTVYLQMNSLKPEDTAVYYCAASVKDFTCTFNSWGQGTQVTVSS
- binding result [3]: no binding (tested: 100 nM)

B8: Nb 1.16 displayed on E. coli as intimin-Nb-myc tag fusion (VHH)
VHH: QVQLVESGGGSVQAGGSLRLSCAASGNTSKRKCVGWFRRAPGKEREGVTLIYTVGGSTVYADSVKGRFTISQDNAKDTVYLQMNSLKPEDSAMYYCAAESWGRQCNLETHRFTFWGQGTQVTVSS
- binding result [3]: no binding (tested: 100 nM)

B9: Nb 1.26 displayed on E. coli as intimin-Nb-myc tag fusion (VHH)
VHH: QVQLVESGGGLVQAGGSLRLSCAATGYTWSSVCMGWFRQAPGKEREGVAGIPSGRNRPYYADSVKGRFTISQDNAKNAVFLLMNSLKPEDTAIYYCAPCSAPHDPEYNYWGQGTQVTVSS
- binding result [3]: no binding (tested: 100 nM)

B10: Nb 1.28 displayed on E. coli as intimin-Nb-myc tag fusion (VHH)
VHH: QVQLVESGGGSVQAGGSLRLSCAASGLTNIRCHMAWYRQAPGKGRELVSRITTNGVTDYADSVKERFTISRHNAENTVYLQMNSLKPEDTAVYYCAACGFSTTTYWGQGTQVTVSS
- binding result [3]: no binding (tested: 100 nM)

B11: Nb 1.29 displayed on E. coli as intimin-Nb-myc tag fusion (VHH)
VHH: QVQLVESGGGSVQAGGSLRLSCAASGYTINTDAVAWFRQAPGKGDERVAVIYTGSGNTNYADSVKGRFTISQDNAKNTVYLQMNSLKPEDTALYYCASGYYGASGYDFNNWGQGTQVTVSS
- binding result [3]: no binding (tested: 100 nM)

B12: Nb 2.1 displayed on E. coli as intimin-Nb-myc tag fusion (VHH)
VHH: QVQLVESGGGSVQAGGSLRLSCAAFGATISSAHMGWFRQAPGKEREGVAFRYTDGSSTYYTTSVRGRFTISQDNAKNTVYLQMNSLKPEDTAMYYCASNPSWGRLVGGQYNNWGQGTQITVSS
- binding result [3]: no binding (tested: 100 nM)

B13: Nb 2.11 displayed on E. coli as intimin-Nb-myc tag fusion (VHH)
VHH: QVQLVESGGGSVQAGGSLRLSCAASGDASNRKCVSWFRRAPGKEREGVALIFPVGSSTAYADSVKGRFTISQDSAKDTVYLQMNNLKPEDSGTYYCAAVSWGGRCNLETQTVTFWGQGTQVTVSS
- binding result [3]: no binding (tested: 100 nM)

B14: Nb 2.15 displayed on E. coli as intimin-Nb-myc tag fusion (VHH)
VHH: QVQLVESGGGSVQAGGSLKLSCAASGYASWARKCIGWFRQAPGQEREGVAAIFDFDGSTYYSDSVKGRFTISGDNAKNTVSLQMNSLLPKDTAVYYCTVAFGTCDNWYRGRGDYWGQGTQVTVSS
- binding result [3]: no binding (tested: 100 nM)

B15: Nb 2.20 displayed on E. coli as intimin-Nb-myc tag fusion (VHH)
VHH: QVQLVESGGGSVQAGGSLRLSCAASGYTYNNYYMGWFRQAPGKEREGVAAINSDGLDTYVADSVKGRFTISRDNAKDTVHLQMNSLKPEDTAIYSCATGRTVYYSGYDFRLSVDDYWGQGTQVTVSS
- binding result [3]: no binding (tested: 100 nM)
